In patent US20130251702A1, “METHOD FOR SCREENING COMPOUNDS FOR TREATING SEPSIS TARGETING NOD2 SIGNALLING PATHWAY AND COMPOSITION FOR TREATING SEPSIS COMPRISING NOD2 SIGNALLING PATHWAY INHIBITORS” (SNU R&DB FOUNDATION, priority 2012, published 2013):

Experiments:
[1] = tested on: NOD2-mediated IL-1β and IL-10 production; test: Peritoneal immune cells cultured with SB203580 and/or MDP, IL-1β and IL-10 measured in culture; type: cell-based, mice
Experimental: (§1) Concentrations of IL-1β, IL-6, IL-10, IFN-γ, TNF-α and C5a in serum and peritoneal fluid were measured in CLP-induced sepsis mice. All cytokines were measured using a BD Bioscience ELISA kit according to the manufacturer's instructions. Colorimetric reactions were stopped by adding 3 N HCl, and the optical absorbance at 450 and 570 nm was determined using a spectrophotometer.
To investigate the mechanism by which NOD2 enhances C5 generation during polymicrobial infection, serum and peritoneal levels of various cytokines in WT and Nod2^−/− mice were estimated after CLP. […] To confirm whether NOD2-mediated signals induce IL-1β and IL-10 production by immune cells, peritoneal cells from WT and Nod2^−/− mice were cultured with MDP, a NOD2 agonist. […] Among immune cells, monocytes, granulocytes, and dendritic cells, but not T or B cells, express NOD 2 (Gutierrez, O. et al. Induction of Nod2 in myelomonocytic and intestinal epithelial cells via nuclear factor-kappa B activation. J Biol Chem 277, 41701-41705 (2002)).
Upon activation, NOD2 oligomerizes and recruits the nuclear factor (NF)-κB-activating kinase receptor-interacting protein 2 (RIP2) via a homotypic CARD-CARD (caspase recruitment domain) interaction, triggering IκB phosphorylation and NF-κB activation.

[2] = tested on: CLP-induced sepsis; test: Survival in CLP-induced sepsis; type: in vivo, mice; conditions: for survival during CLP-induced sepsis: WT mice injected with recombinant protein after CLP
Experimental: (§2) To deplete Gr-1^+cells in vivo, WT B6 or NOD2−/− mice were i.p. injected with anti-Gr-1 mAb (160 μg/injection) (BD Bioscience, Sparks, Md., USA) 2 and 3 days prior to CLP. Recombinant mouse (mr) IL-1β (40 μg/mouse) or IL-10 (30 μg/mouse) (ProSpec-Tany TechnoGene, Rehovot, Israel) was i.p. injected into WT or Nod2^−/− mice 4 or 12 h after CLP, respectively. mrC5a (5 μg/injection) or anti-05a mAb (100 μg/injection) (R&D Systems Inc., Minneapolis, Minn., USA) was i.p. injected into WT or Nod2^−/− mice 4 and 12 h after CLP.
Survival data were plotted as Kaplan-Meier survival curves and analyzed using the log-rank test. Statistical significance was analyzed using Prism 5.0 (GraphPad Software Inc, San Diego, Calif., USA). One-way and two-way analyses of variance (ANOVA) and t-tests was performed, and a post hoc test was used if P<0.05. Data are expressed as the mean±standard error of the mean.

[3] = tested on: CLP-induced sepsis mice; test: Serum and peritoneal cytokine and complement levels (ELISA) in CLP-induced sepsis mice; type: in vivo; conditions: for serum and peritoneal C5a generation: WT or Nod2−/− mice, recombinant cytokine 4 h or 12 h after CLP
Experimental: as §2, §1

[4] = biological target: T1, RIP2 (Mus musculus, UniProt P58801); test: Blot of RIP2 phosphorylation in peritoneal immune cells during CLP-induced sepsis; type: in vivo; conditions: WT mice, SB203580 50 μg/mouse i.p.
T1 construct: reduced phosphorylation of RIP2 and P38 in peritoneal immune cells; endogenous in cells

[5] = tested on: CD55; test: CD55 expression on Ly6-G+ peritoneal cells (flow cytometry) after CLP; type: in vivo, mice
Experimental: as §2
PLF cells were incubated with antibodies on ice for 30 min in 100 μl of staining buffer (0.5% BSA). FITC-conjugated anti-Ly-6G, phycoerythrin (PE)-conjugated anti-CD4 mAb, PE-conjugated anti-CD8, PE-conjugated anti-MHC class II, FITC-conjugated anti-CD80, FITC-conjugated anti-CD86, FITC-conjugated anti-annexin V mAbs, and 7AAD (7-amino-actinomycin D) were purchased from BD Biosciences. PE Cy5- or Alexa 647 (eBioscience, San Diego, Calif., USA)-conjugated anti-F4/80 mAb was used. Stained cells were then run on an LSR II and FACs caliber (BD Bioscience) and analyzed using Flowjo software (Treestar, Ashland, Oreg., USA).

[6] = cited from earlier work
[7] = tested on: bacteria; test: Bacterial CFUs in blood and liver homogenates after CLP; type: in vivo; conditions: Nod2−/− mice with CLP
Experimental: Bacterial CFUs were determined by plating serial dilutions of blood and liver homogenates onto blood agar plates (Hanil Komed, Seoul, Korea), which were incubated in 5% CO2 at 37° C. overnight. The number of colonies was counted 18 h later.

[8] = tested on: peritoneal immune cells; test: Responsiveness of peritoneal immune cells from CLP mice against LPS (cytokine production LPS vs PBS); type: in vivo; conditions: for LPS-mediated cytokine production by peritoneal immune cells: cells from Nod2−/− mice with CLP
Experimental: as §2
(§3) During bacterial septic shock, C5a triggers coagulopathy and neutrophil dysfunction, thereby defective bacterial clearance and cytokine production (Ward, P. A. The dark side of C5a in sepsis. Nat Rev Immunol 4, 133-142 (2004)). Therefore, to estimate C5a effects on immune responses in WT B6 and Nod2^−/− mice during infection, we examined the responsiveness of immune cells against lipopolysaccharide (LPS) and macrophage phagocytic activity, bacteria colony-forming units (CFUs), and levels of serum D-dimer after CLP. To estimate the responsiveness of peritoneal immune cells against LPS, peritoneal cells obtained from B6 or Nod2^−/− mice 24 h after CLP were stimulated with LPS or PBS (FIG. 1C). The responsiveness of peritoneal immune cells against LPS was determined by estimating ratios of individual cytokines produced against LPS versus PBS. Peritoneal immune cells obtained from Nod2^−/− mice 24 h after CLP produced higher IL-1β, IL-6, and TNF-αlevels against LPS than did WT peritoneal cells. The levels of serum D-dimer in Nod2^−/− mice were lower than those in WT mice (FIG. 1D). However, peritoneal cells obtained from Nod2^−/− mice engulfed more FITC-conjugated Escherichia coli than did WT peritoneal cells (FIG. 1E). Consistent with these findings, bacteria CFU levels in the blood and liver homogenates were higher in WT B6 mice than in Nod2^−/− mice (FIG. 1F). Recombinant C5a administration to Nod2^−/− mice with CLP reversed cytokine production by peritoneal immune cells and serum D-dimer levels, but not phagocytosis activity and bacterial CFUs.

[9] = tested on: peritoneal cells; test: Bacterial phagocytosis by peritoneal immune cells (FITC-labeled E. coli); type: in vivo; conditions: Nod2−/− mice with CLP
Experimental: Peritoneal fluid cells of WT B6 or Nod2^−/− mice were cultured with FITC-labeled E. coli (Invitrogen, Carlsbad, Calif., USA) for 15 min. Cells attached on the plates were washed with warm PBS three times and then treated with 0.2% trypan blue for 1 min at room temperature. Cells were fixed with 4% formalin for 15 min and cultured with FITC-labeled E. coli. to estimate nonspecific binding of E. coli on the cell surface. These cells, which were cultured with FITC-labeled E. coli, were then run on the FACs caliber machine and analyzed with Flowjo software.

[10] = Serum D-dimer levels after CLP; type: in vivo; conditions: Nod2−/− mice with CLP
From the text: as §3, with “Recombinant C5a administration to Nod2^−/− mice with CLP reversed cytokine production by peritoneal immune cells and serum D-dimer levels, but not phagocytosis activity and bacterial CFUs.” left out

[11] = WT mice, CLP, SB203580 50 μg/mouse i.p.
[12] = WT mice peritoneal immune cells, SB203580 20 nM, MDP 20 μg/ml, 24 h
[13] = 73 patients treated, Critical Care Medicine 2009
[14] = Nod2−/− mice injected with recombinant protein after CLP
[15] = Nod2−/− mice, polymicrobial infection

T1 sequence (P58801 whole entry): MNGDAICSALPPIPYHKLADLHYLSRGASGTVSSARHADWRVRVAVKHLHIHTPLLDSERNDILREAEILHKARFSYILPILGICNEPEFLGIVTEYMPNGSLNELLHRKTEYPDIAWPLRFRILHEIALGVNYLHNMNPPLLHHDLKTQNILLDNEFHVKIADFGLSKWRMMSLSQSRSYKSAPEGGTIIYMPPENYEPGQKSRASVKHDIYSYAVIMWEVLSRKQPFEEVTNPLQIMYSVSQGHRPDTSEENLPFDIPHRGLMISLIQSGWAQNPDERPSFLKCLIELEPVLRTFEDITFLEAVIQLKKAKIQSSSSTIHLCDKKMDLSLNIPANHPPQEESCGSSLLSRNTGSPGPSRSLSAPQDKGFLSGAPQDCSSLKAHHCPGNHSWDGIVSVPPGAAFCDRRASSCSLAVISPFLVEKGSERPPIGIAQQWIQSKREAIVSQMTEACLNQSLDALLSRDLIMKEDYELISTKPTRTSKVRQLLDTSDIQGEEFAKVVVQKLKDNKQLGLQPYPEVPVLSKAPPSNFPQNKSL

CC(=O)N[C@@H]1[C@@H](O[C@H](C)C(=O)N[C@@H](C)C(=O)N[C@H](CCC(=O)O)C(N)=O)[C@H](O)[C@@H](CO)O[C@H]1O [MDP]
IL-1β production upon MDP treatment ([1]; NOD2-deficient cells): minimally produced | IL-10 production upon MDP treatment ([1]; NOD2-deficient cells): minimally produced | IL-1β production upon MDP treatment ([1]; WT peritoneal immune cells): produced | IL-10 production upon MDP treatment ([1]; WT peritoneal immune cells): produced

C[S+]([O-])c1ccc(-c2nc(-c3ccncc3)c(-c3ccc(F)cc3)[nH]2)cc1 (centres unmarked) [SB203580, reference compound]
CLP-induced sepsis ([2]; WT mice injected with SB203580, FIG. 6 legend): attenuates | survival rates during CLP-induced sepsis ([2]; WT mice, SB203580 50 μg/mouse i.p. vs PBS): increased | levels of serum and peritoneal C5a during sepsis [3, 11]: reduced | levels of serum and peritoneal IL-1β during sepsis [3, 11]: reduced | levels of serum and peritoneal IL-10 during sepsis [3, 11]: reduced | phosphorylation of RIP2 in peritoneal immune cells [4]: reduced | CD55 expression levels of Ly6-G+ granulocytes [5, 11]: reduced | MDP-mediated IL-1β production by peritoneal cells [1, 12]: decreased | MDP-mediated IL-10 production by peritoneal cells [1, 12]: decreased

Drotrecogin alfa [Xigris]
fatality [6, 13]: increased | hemorrhage [6, 13]: severe hemorrhage had occurred | severe side effect in clinical trial ([6]; pediatric patients with severe blood infection): cerebral hemorrhage

B1: recombinant IL-1β: Recombinant mouse (mr) IL-1β, 40 μg/mouse i.p. (protein, UniProt P10749 118-269, looked up)
Interleukin-1 beta: VPIRQLHYRLRDEQQKSLVLSDPYELKALHLNGQNINQQVIFSMSFVQGEPSNDKIPVALGLKGKNLYLSCVMKDGTPTLQLESVDPKQYPKKKMEKRFVFNKIEVKSKVEFESAEFPNWYISTSQAEHKPVFLGNNSGQDIIDFTMESVSS
bacterial CFUs in the blood or liver homogenates [7]: reduced | survival rates during CLP-induced sepsis [2, 14]: reduced | survival during CLP-induced sepsis [2]: did not affect | C5a levels during polymicrobial infection ([3]; Il-10−/− mice with CLP): not altered | serum and peritoneal IL-10 levels ([3]; Nod2−/− mice, polymicrobial infection (CLP)): enhanced | serum and peritoneal C5a generation [3]: enhanced | CD55 expression on F4/80−Ly6-G+ peritoneal cells ([5]; Il-10−/− mice): did not decrease | CD55 expression on F4/80−Ly6-G+ peritoneal cells [5, 15]: decreased | LPS-induced cytokine production by peritoneal immune cells ([8]; cells from Il-10−/− mice with CLP): did not alter | LPS-mediated cytokine production by peritoneal immune cells [8]: suppressed | phagocytosis of bacteria by peritoneal cells [9]: reduced

B2: recombinant C5a: recombinant mouse C5a, i.p. injected 5 μg/injection (protein, UniProt P06684 679-755, looked up)
C5a anaphylatoxin: NLHLLRQKIEEQAAKYKHSVPKKCCYDGARVNFYETCEERVARVTIGPLCIRAFNECCTIANKIRKESPHKPVQLGR
modifications: C5a anaphylatoxin
notes: recombinant mouse C5a, i.p. injected 5 μg/injection
bacterial CFUs in the blood or liver homogenates [7]: not | serum D-dimer levels [10]: reversed | survival rates during CLP-induced sepsis [2, 14]: decreased | survival during CLP-induced sepsis [2]: did not cause survival changes | LPS-mediated cytokine production by peritoneal immune cells [8]: reversed

B3: recombinant IL-10: Recombinant mouse IL-10, 30 μg/mouse i.p. (protein, UniProt P18893 19-178, looked up)
Interleukin-10: SRGQYSREDNNCTHFPVGQSHMLLELRTAFSQVKTFFQTKDQLDNILLTDSLMQDFKGYLGCQALSEMIQFYLVEVMPQAEKHGPEIKEHLNSLGEKLKTLRMRLRRCHRFLPCENKSKAVEQVKSDFNKLQDQGVYKAMNEFDIFINCIEAYMMIKMKS
bacterial CFUs in the blood or liver homogenates [7]: not | survival rates during CLP-induced sepsis [2, 14]: reduced | survival during CLP-induced sepsis [2]: did not affect | serum and peritoneal C5a generation [3]: enhanced | CD55 expression on F4/80−Ly6-G+ peritoneal cells [5, 15]: decreased | LPS-mediated cytokine production by peritoneal immune cells [8]: suppressed
